Assay [1] has as its target VN-TFIIEβ (TFIIEβ fused to the N-terminal fragment of Venus, pCS2VNm9) (Drosophila). Kind of assay: split reporter (BiFC, NanoBiT); BiFC with split Venus (VC and VN fusions) in co-transfected HEK293 cells, read 48 h after transfection by confocal microscopy; percent = Venus-fluorescent cells in one hundred mCherry-positive cells, three independent experiments.
For assay [2], the target named is VN-TFIIEβ (TFIIEβ fused to the N-terminal fragment of Venus, pCS2VNm9). Kind of assay: BiFC. To be noted: cell culture; pCAG-Cherry co-transfected as a control.
The target in assay [3] is EXD (BiFC partner in HEK293 cells) (Drosophila) (UniProt P40427). Nature of the assay: split reporter (BiFC, NanoBiT); BiFC with split Venus (VC and VN fusions) in co-transfected HEK293 cells, read 48 h after transfection by confocal microscopy; percent = Venus-fluorescent cells in one hundred mCherry-positive cells, three independent experiments.

Percent of transfected (mCherry-positive) cells with BiFC signal and response data for 11 substances are collected here from article PMC6188894.

Sequence of VN-TFIIEβ (TFIIEβ fused to the N-terminal fragment of Venus, pCS2VNm9) (Drosophila) (O96881 entry or part of it): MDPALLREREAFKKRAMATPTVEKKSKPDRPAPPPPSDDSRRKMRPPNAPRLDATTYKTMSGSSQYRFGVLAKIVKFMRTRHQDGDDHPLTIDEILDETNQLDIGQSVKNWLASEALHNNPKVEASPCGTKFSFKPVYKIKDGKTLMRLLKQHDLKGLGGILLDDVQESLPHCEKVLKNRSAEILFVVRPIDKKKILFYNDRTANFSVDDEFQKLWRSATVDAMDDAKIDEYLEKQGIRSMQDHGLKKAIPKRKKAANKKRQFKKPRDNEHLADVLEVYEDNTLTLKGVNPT
Sequence of UniProt P40427 (P40427 whole entry, the tested form may be a part): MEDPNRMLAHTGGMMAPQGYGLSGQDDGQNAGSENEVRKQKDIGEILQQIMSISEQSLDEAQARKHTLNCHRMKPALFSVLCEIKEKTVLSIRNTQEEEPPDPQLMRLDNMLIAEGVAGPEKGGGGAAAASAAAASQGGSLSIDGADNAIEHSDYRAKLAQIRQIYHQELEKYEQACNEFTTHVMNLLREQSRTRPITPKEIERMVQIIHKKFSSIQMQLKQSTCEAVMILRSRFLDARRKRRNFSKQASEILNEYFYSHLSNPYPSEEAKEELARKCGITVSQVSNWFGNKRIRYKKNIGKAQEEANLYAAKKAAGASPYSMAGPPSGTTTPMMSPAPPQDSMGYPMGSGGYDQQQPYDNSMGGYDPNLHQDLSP

In assay [1], “VC-Antp (wild-type Antennapedia fused to the C-terminal fragment of Venus, pCS2VC155) (from UniProt P02833 1-378) (natural protein)” showed a percent of transfected (mCherry-positive) cells with BiFC signal of 78%.

Substance “VC-Antp (wild-type Antennapedia fused to the C-terminal fragment of Venus, pCS2VC155) (from UniProt P02833) H36R” registered a response in assay [2] of 32%.

“VC-Antp (wild-type Antennapedia fused to the C-terminal fragment of Venus, pCS2VC155) (from UniProt P02833) I32A” came in with a response in assay [2] of 29%.

For “VC-Antp (wild-type Antennapedia fused to the C-terminal fragment of Venus, pCS2VC155) (from UniProt P02833) I32L”, the response in assay [2] came out at 31%.

The substance “VC-AntpHD (Antp homeodomain construct fused to the C-terminal fragment of Venus, pCS2VC155) (domain or fragment)” returned a percent of transfected (mCherry-positive) cells with BiFC signal in assay [1] of 75%.

Substance “VC-Antp^AAAA (Antp with the YPWM motif replaced with alanines) (from UniProt P02833 1-378) (natural protein)” showed a percent of transfected (mCherry-positive) cells with BiFC signal in assay [1] of 76%.

As to “VC-Antp^I32A-H36A (in HEK293 cells) (natural protein)”, in assay [3], the percent of transfected (mCherry-positive) cells with BiFC signal was found to be 79%.

In assay [1], VC-Antp^I32L-H36R (natural protein) yielded a percent of transfected (mCherry-positive) cells with BiFC signal of 13%.

As to “VC-AntpΔH1 (Antp with helix 1 of the HD deleted) (from UniProt P02833 1-378) (natural protein)”, in assay [1], the percent of transfected (mCherry-positive) cells with BiFC signal is 74%.

In assay [1], “VC-AntpΔH1-2 (Antp with helices 1 and 2 of the HD deleted) (from UniProt P02833 1-378) (natural protein)” had a percent of transfected (mCherry-positive) cells with BiFC signal of 15%.

Consider “VC-AntpΔHD (Antp with the homeodomain deleted) (from UniProt P02833 1-378) (natural protein)”, for which the percent of transfected (mCherry-positive) cells with BiFC signal in assay [1] came to 26%.
